This note sets out measurements from US20020045590A1 (Johns Hopkins, published 2002).

The target in assay [1] is T1, neuronal nitric oxide synthase (nNOS) (rat, UniProt P29476 1-1429, limits assumed).
T1 construct: Endogenous rat protein
Put plainly: GST fusion protein binding assay with rat hippocampus membrane proteins, immunoblot. How it is done: We utilized the yeast two-hybrid system to investigate the effects of halothane on protein interactions within the NMDA receptor signaling complex. The PDZ domain of nNOS or the C-terminus of NMDA receptor subunit 2B (NR2B) was fused in frame with the GAL4 DNA-binding domain in a yeast vector, pGBT9. […] Both yeast vectors were co-transformed into the Y190 yeast strain, which was then grown in the absence or presence of halothane at clinically relevant concentrations. Protein-protein interactions were confirmed by both yeast growth on -Leu/-Trp/-His (-LTH) medium and lacz expression. To confirm the yeast two-hybrid results, the GST fusion protein binding assay was performed. […] After extensive washing, the bound proteins were eluted by boiling in 1 X SDS-PAGE sample buffer and detected by immunoblotting.
A general note: In western blotting, separated proteins are transferred to a membrane and probed.

Assay [2] concerns the target T2, postsynaptic density-95 (PSD-95)/synapse-associated protein-90 (SAP90) (rat, UniProt P31016 1-724).
T2 construct: Endogenous protein from rat spinal cord PSD fraction, pulled down by co-immunoprecipitation; also called PSD-95/SAP90
Put plainly: co-immunoprecipitation from rat spinal cord PSD fraction, immunoblot.

T1 sequence (P29476 whole entry): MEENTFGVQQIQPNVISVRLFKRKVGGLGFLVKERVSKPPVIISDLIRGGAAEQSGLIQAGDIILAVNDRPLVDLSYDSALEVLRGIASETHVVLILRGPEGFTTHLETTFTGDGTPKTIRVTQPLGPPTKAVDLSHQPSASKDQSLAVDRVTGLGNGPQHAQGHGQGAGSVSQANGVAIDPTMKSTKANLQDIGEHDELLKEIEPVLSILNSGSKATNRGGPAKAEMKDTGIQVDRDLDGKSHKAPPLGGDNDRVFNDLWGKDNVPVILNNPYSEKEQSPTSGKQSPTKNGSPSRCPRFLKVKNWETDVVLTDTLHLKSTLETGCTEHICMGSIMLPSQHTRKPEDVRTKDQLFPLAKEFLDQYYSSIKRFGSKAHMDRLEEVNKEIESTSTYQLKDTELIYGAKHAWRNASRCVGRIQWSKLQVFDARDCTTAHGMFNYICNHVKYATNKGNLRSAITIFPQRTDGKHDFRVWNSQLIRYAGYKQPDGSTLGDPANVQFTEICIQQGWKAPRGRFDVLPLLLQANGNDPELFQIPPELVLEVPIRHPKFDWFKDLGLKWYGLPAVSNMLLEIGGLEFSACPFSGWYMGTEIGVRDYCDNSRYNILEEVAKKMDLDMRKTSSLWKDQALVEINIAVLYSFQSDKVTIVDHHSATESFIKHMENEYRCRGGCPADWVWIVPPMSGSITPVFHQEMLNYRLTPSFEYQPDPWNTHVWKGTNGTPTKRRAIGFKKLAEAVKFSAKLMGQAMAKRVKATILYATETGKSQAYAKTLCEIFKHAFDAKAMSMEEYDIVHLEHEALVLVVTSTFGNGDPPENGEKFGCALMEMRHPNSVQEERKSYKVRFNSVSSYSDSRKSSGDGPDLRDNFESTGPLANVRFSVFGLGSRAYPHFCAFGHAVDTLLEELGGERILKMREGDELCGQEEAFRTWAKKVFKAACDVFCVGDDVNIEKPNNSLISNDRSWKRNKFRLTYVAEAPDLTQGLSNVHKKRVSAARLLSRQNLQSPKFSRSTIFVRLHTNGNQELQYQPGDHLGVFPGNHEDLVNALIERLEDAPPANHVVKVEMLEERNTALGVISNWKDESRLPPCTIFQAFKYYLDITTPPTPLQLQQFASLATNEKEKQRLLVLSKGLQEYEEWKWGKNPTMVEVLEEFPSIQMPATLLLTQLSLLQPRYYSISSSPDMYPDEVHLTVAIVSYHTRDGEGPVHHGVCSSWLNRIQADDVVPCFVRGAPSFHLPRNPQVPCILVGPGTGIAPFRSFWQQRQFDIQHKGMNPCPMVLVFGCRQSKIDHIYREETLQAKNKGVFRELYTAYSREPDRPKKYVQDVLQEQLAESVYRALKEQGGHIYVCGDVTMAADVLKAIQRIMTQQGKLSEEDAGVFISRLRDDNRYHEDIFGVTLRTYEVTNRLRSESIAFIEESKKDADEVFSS
T2 sequence (P31016 whole entry): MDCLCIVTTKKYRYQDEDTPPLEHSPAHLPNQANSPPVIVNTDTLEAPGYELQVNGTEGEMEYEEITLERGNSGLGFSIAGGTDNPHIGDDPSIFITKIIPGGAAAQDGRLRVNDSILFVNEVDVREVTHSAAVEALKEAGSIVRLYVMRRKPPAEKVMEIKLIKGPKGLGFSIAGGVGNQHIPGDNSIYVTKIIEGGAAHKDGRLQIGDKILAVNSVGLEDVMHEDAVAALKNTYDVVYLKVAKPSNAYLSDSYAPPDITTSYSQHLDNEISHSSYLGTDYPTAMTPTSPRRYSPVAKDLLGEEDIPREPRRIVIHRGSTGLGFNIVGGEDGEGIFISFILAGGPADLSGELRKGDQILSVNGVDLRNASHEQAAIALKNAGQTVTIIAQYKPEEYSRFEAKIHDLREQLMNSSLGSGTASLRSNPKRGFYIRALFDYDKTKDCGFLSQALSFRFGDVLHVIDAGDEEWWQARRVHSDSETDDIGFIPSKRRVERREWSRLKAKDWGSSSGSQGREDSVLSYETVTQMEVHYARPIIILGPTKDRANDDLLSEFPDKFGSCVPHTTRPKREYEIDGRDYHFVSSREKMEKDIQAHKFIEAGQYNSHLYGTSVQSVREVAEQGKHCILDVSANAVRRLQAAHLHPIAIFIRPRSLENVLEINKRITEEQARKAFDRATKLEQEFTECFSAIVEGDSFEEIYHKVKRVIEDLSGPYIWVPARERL

B1: GST-fusion protein consisting of the second PDZ domain of PSD-93 (other, UniProt Q63622 193-279, looked up)
chain: EIKLFKGPKGLGFSIAGGVGNQHIPGDNSIYVTKIIDGGAAQKDGRLQVGDRLLMVNNYSLEEVTHEEAVAILKNTSDVVYLKVGKP
notes: domain: second PDZ domain; Expressed in bacterial BL21 cells, purified on glutathione-coupled agarose; also called GST-PSD-93; GST-fusion PSD-93; not shown: glutathione S-transferase (GST) tag
For the molecule B1, the binding result in assay [1] is “binds”.

B2: GST-fusion protein consisting of the second PDZ domain of PSD-95 (other, UniProt P31016 160-246, looked up)
chain: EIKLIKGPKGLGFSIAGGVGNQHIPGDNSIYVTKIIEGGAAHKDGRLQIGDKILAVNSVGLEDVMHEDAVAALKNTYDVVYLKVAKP
notes: domain: second PDZ domain; Expressed in bacterial BL21 cells, purified on glutathione-coupled agarose; also called GST-PSD-95; GST-fusion PSD-95; not shown: glutathione S-transferase (GST) tag
Turning to B2, the binding result in assay [1] was “binds”.

B3: endothelial NOS (eNOS) (enzyme, rat, UniProt Q62600 2-1202, looked up)
chain: GNLKSVGQEPGPPCGLGLGLGLGLCGKQGPASPAPEPSQAPVPPSPTRPAPDHSPPLTRPPDGPKFPRVKNWEVGSITYDTLSAQAQQDGPCTPRRCLGSLVFPRKLQSRPTQGPSPTEQLLGQARDFINQYYNSIKRSGSQAHEQRLQEVEAEVVATGTYQLRESELVFGAKQAWRNAPRCVGRIQWGKLQVFDARDCRTAQEMFTYICNHIKYATNRGNLRSAITVFPQRYAGRGDFRIWNSQLVRYAGYRQQDGSVRGDPANVEITELCIQHGWTPGNGRFDVLPLLLQAPDEPPELFTLPPELVLEVPLEHPTLEWFAALGLRWYALPAVSNMLLEIGGLEFPAAPFSGWYMSSEIGMRDLCDPHRYNILEDVAVCMDLDTRTTSSLWKDKAAVEINVAVLYSYQLAKVTIVDHHAATASFMKHLENEQKARGGCPADWAWIVPPISGSLTPVFHQEMVNYFLSPAFRYQPDPWKGSAAKGTGITRKKTFKEVANAVKISASLMGTVMAKRVKATILYGSETGRAQSYAQQLGRLFRKAFDPRVLCMDEYDVVSLEHEALVLVVTSTFGNGDPPENGESFAAALMEMSGPYNSSPRPEQHKSYKIRFNSVSCSDPLVSSWRRKRKESSNTDSAGALGTLRFCVFGLGSRAYPHFCAFARAVDTRLEELGGERLLQLGQGDELCGQEEAFRGWAQAAFQAACETFCVGEDAKAAARDIFSPKRSWKRQRYRLSTQAESLQLLPRLTHVHRRKMFQATILSVENLQSSKSTRATILVRLDTGSQEGLQYQPGDHIGVCPPNRPGLVEALLSRVEDPPPSTEPVAVEQLEKGSPGGPPPGWVRDPRLPPCTLRQALTYFLDITSPPSPRLLRLLSTLAEESSEQQELEALSQDPRRYEEWKWFRCPTLLEVLEQFPSVALPAPLILTQLPLLQPRYYSVSSAPSAHPGEIHLTVAVLAYRTQDGLGPLHYGVCSTWMSQLKAGDPVPCFIRGAPSFRLPPDPNLPCILVGPGTGIAPFRGFWQDRLHDIEIKGLQPAPMTLVFGCRCSQLDHLYRDEVLDAQQRGVFGQVLTAFSRDPGSPKTYVQDLLRTELAAEVHRVLCLEQGHMFVCGDVTMATSVLQTVQRILATEGSMELDEAGDVIGVLRDQQRYHEDIFGLTLRTQEVTSRIRTQSFSLQERQLRGAVPWSFDPPTQETPGS
notes: Endogenous rat protein
On to B3, for which, in assay [2], the binding result was “no binding”.
